Patent US20050084449A1 (CELLDEX THERAPEUTICS, published 2005)

B1: anti-TIM-1 mAb 2.59 (antibody, human IgG4, V domains shown)
VH: QSGPRLVKPSQTLSLTCTVSGGSISSDGYYWSWIRQHPGKGLEWIGYIYYSGSTFYNPSLKSRVAISVDTSKNQFSLKLSSVTAADTAVYYCARESPHSSNWYSGFDCWGQGTLVTVSS
VL: TQSPDFQSVTPKEKVTITCRASQSIGSRLHWYQQKPDQSPKLLIKYASQSFSGVPSRFSGSGSGTDFTLTINSLEAEDAATYYCHQSSNLPFTFGPGTKVDIKR
notes: Biotinylated for IHC
B2: anti-TIM-1 mAb 2.16 (antibody, V domains shown)
VH: EQSGGGVVKPGGSLRLSCAASGFTFSNAWMTWVRQAPGKGLEWVGRIKRRTDGGTTDYAAPVKGRFTISRDDSKNTLYLQMNNLKNEDTAVYYCTSVDNDVDYWGQGTLVTVSS
VL: not shown
notes: also called 2.16.1 (subclone)
B3: anti-TIM-1 mAb 1.29 (antibody, human IgG2, V domains shown)
VH: QVQLQESGPGLVKPSETLSLTCTVSGGSVSSGGYYWSWIRQPPGKGLEWIGFIYYTGSTNYNPSLKSRVSISVDTSKNQFSLKLSSVTAADAAVYYCARDYDWSFHFDYWGQGTLVTVSS
VL: DIQMTQSPSSLSASIGDRVTITCRASQGIRNDLGWYQQKPGKAPKRLIYAASSLQSGVPSRFSGSGSGTEFTLTISSLQPEDFATYYCLQHNSYPLTFGGGTKVEIKR
B4: anti-TIM-1 mAb 2.70 (antibody, V domains shown)
VH: QVQLVESGGGVVQPGRSLRLSCAASGFIFSRYGMHWVRQAPGKGLKWVAVIWYDGSNKLYADSVKGRFTISRDNSKNTLYLQMNSLRAEDTAVYYCARDYYDNSRHHWGFDYWGQGTLVTVSS
VL: DIVMTQTPLSLPVTPGEPASISCRSSRSLLDSDDGNTYLDWYLQKPGQSPQLLIYTLSYRASGVPDRFSGSGSGTDFTLKISRVEAEDVGVYYCMQRVEFPITFGQGTRLEIKR
notes: Subclone 2.70.2 is treated as the same antibody because its printed variable regions are identical; also called 2.70.2 (subclone); TIM-1 2.70.2

Assays:
[1] = molecular target: T1, TIM-1 antigen, cell membrane-bound (on ACHN, CAKI-2, CAKI-1 renal cancer cells and polarized/activated human … (human, UniProt Q96D42 21-364)); assay: FACS on CAKI-2 cells, normalized to isotype control pK16
T1 construct: whole, on cells; Endogenous protein on cells; also called HAVcr-1; KIM-1
T1 sequence (looked up): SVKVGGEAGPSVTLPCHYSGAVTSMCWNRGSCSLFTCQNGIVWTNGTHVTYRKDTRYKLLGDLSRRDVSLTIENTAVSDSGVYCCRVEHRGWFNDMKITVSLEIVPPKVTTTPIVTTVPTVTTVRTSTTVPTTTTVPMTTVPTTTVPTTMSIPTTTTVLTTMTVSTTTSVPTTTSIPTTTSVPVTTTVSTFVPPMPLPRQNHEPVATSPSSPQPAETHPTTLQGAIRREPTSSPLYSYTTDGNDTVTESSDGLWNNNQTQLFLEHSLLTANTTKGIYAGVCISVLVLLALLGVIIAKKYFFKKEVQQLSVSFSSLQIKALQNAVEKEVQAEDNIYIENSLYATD

[2] = molecular target: T1, TIM-1 antigen, cell membrane-bound (on …); assay: FACS on polarized human CD4+ Th2 cells, 10 ug/mL mAb
[3] = molecular target: T1, TIM-1 antigen, cell membrane-bound (on …); assay: FACS on ACHN cells, normalized to isotype control pK16
[4] = molecular target: T2, TIM-1 peptide D) PMPLPRQN (human); assay: peptide ELISA
T2 peptide: PMPLPRQN

[5] = molecular target: T3, TIM-1 peptide G) PRQNHEPVAT (human); assay: peptide ELISA
T3 peptide: PRQNHEPVAT

TIM-1 peptide E) PMPLPR = molecular target: T4, TIM-1 peptide E) PMPLPR (human); assay: peptide ELISA
T4 peptide: PMPLPR

[6] = molecular target: T5, TIM-1 peptide H) QNHEPVAT (human); assay: peptide ELISA
T5 peptide: QNHEPVAT

TIM-1 peptide I) HEPVAT = molecular target: T6, TIM-1 peptide I) HEPVAT (human); assay: peptide ELISA
T6 peptide: HEPVAT

[7] = molecular target: T7, synthetic peptide PMPLPRQAHE (SEQ ID NO:102); assay: peptide ELISA, alanine scan
T7 peptide: PMPLPRQAHE

[8] = molecular target: T8, synthetic peptide PMPLARQNHE (SEQ ID NO:99); assay: peptide ELISA, alanine scan
T8 peptide: PMPLARQNHE

Binder	Geo Mean Ratio (relative to negative control) [1]	Geometric mean of fluorescence intensity [2]	Geo Mean Ratio (relative to negative control) [3]	binding result [4]	binding result [5]	binding result (TIM-1 peptide E) PMPLPR)	binding result [6]	binding result (TIM-1 peptide I) HEPVAT)	binding result [7]	binding result [8]
B1	7.7 ratio	22	15.2 ratio							
B2			7.9 ratio							
B3		22.3	17.9 ratio							
B4	8.8 ratio	27.8	19.4 ratio	no binding	no binding	no binding	no binding	no binding	no binding	no binding
